In the nanobody polyreactivity screen of Harvey et al. (2022):

experiment: yeast display, Sf9 membrane polyspecificity reagent, FACS + sequencing; frameworks hold sequencing errors
Method in brief: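 Sorting gates, low and high (top ~1%), were placed on anti-HA fluorescence to track expression and on streptavidin fluorescence to track reagent binding. A clone's polyreactivity label is taken from the gate it came out of. The reagent was 10% biotinylated, detergent-solubilized Sf9 membrane, applied for 1 hour at 4 °C to galactose-induced yeast display cells.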

Sequence	polyreactivity (PSR sort gate)
QVQLVESGGGLVQAGGSLRLSCAASGSTFKGNAMGWYRQAPGKERELVAAITFSGGSTYYADSVKGRFTISRDNAKNTVYLQMNSLKPEDTAVYYCAKGEWVYWRPWYEYWGQGTQVTVSS	low polyreactivity
QVQLVESGGGLVQAGGSLRLSCAASGITFPANAMGWYRQAPGKERELVADISESDGSTYYADSVKGRFTISLDNAKNTVYLQMNSLKPEDTAVYYCNAEWTSFDWGQGTQVTVSS	low polyreactivity
QVQLVESGGGLVQAGGTLRLSCAASGSIFYGNAMGWYREAPGKERQLVAAIDGTGASTYYADSVKGRFTISRDNAKNPVYLQMNSLKPEDTAVYYCNKALTSKDYPVRTVERDYWGQGTQVTVSS	low polyreactivity
QVQLVESAGGLVQAGGSLRLSCAASGSTFPTYAMGWYRQSPGKERELVAAIDWSDGSITYYADSVKGRFTISRDNAKNTVYLQMNSMKPEDTAVYYCAKDNSQYGWGYDYWGQGTQVTVSS	low polyreactivity
QVQLVESGGGLVQAGGSLRLSCAASGSTFPAYTMGWYRQAPGKERELVAAINVSSGGSTYYADSVKGRFTISRDNAKNTVYLQRNSLKPEDTAVYYCATHGYVAHPYYYPYYYWGQGTQVTVSS	low polyreactivity
QVQLVESGGGLVQAGGSLRLSCAASGFIFASYAMGWYRQAPGKERELVAAISSSGGRTYYADSVKGRFTISRDNAKNTVYLQMNSLKPEDTAVYYCAAPRIYIPAEYYSWGQGTQVTVSS	high polyreactivity
QVQLVESGGGLVQAGGSLRLSCAASGFTFIRSAMGWYRQAPGKGRELVAAITVSGTRTYYADSVKGRFTISRDNAKNTVYLQMNSLKPEDTAVYYCNARDVYTGYGMGYWGQGTQVTVSS	high polyreactivity
QVQLVESGGGLVQAGGSLRLSCAASGRTFYTVYAMGWYRQAPGKERELVAAITRSGGSTYYADSVKGRFTISRDNAKNTLYLQMNSLKPEDTAVYYCAAAPPLAGLGGYYWGQGTQVTVSS	high polyreactivity
QVQLVESGGGLVQAGGSLRLSCAASGFTFVWYAMGWYRQAPGKERELVAAISRRGTRTYYADSVKGRFTISRDNAKNTVYLQMNSLKPEDTAVYYCAASPWGGYGYWGQGTQVTLSS	high polyreactivity
QVQLVESGGGLVQAGGSLRLSCAASGIIFRRYARGWYRQAPGKERELVAAITSGGDTNYADSVKGRFTISRDNAKNTVYLQMNSLKPEDTAVYYSNAGLRGVRRYGFDYWGQGTQVTVSS	high polyreactivity
QVQLVESGGGLVQAGGSLRLSCAASGSTFYSNAMGWYRPAPGKERELVASITRGGSTNYADSVKGRFTISRDNAKNTVYLQMNSLKPEDTAVYYCNAERRYYFYRYDYWGQGTQVTVSS	high polyreactivity
QVQLVESVGALVQAGGSLRLSCAASGSIFGSNAMGGYRQAPGKERELVAAITWSGTSTYYADSVKGRFTISRDNAKNTVYLQMNSLKPEDTAVYYCARGGYVRAARLVIPYYYWGQGTQVTVSS	low polyreactivity
QVQLVESGGGLVQAGGSLRLSCAASGYIFGYNAMGWYRQAPGKERELVATINSSDSTNYADSVKGRFTISRDNAKNTVYLQMNSLKPEDTAVYYCNKDHVRRSYPYDYWGQGTQVTVSS	low polyreactivity
QVQLVESGGGLVQAGGSLRLSCAASGRIFHYNDMVWYRQAPGKEREFVATIRYSGGSTYYADSVKGRFTISRDNAKNTVYLQLNSLKPEDTAVYYCATSRRYLRFRNYYGYDYWGQGTQVTVSS	high polyreactivity
QVQLVESGGGLVQAGGSLRLSCAASGSTFYAYTKGWSRQAPGKERELVADISSGGGTYYADSVKGRFTISRDNAKNTVYLQMNSLKPEDTAVYYCNADWRVGRQLSKAKIPYDYWGQGTQVTVSS	low polyreactivity
QVQLVESGGGLVQAGGSLRLSCAASGRIFGWYAMGWYRQAPGKERELVAAITSSVGRTYYADSVKGRFTISRDNAKNTVYLQMNSLKPEDTAVYYCAKDLYTYYYFEYDYWGQGTQVTVSS	low polyreactivity
QVQLVESGGGLVQAGGSLRLSCAASGRIFLFYAMGGYRQAPGKERELVAAISSTDDTYYADSVKGRFTISRDNAKNTVYLQMNSLKPEDTAVYYCAAYSIISQSEMYYWGQGTQVTVSS	low polyreactivity
QVQLVESGGGLVQAGGSLRLSCAASGFTFRVYAMGWYRHAPGKERELVAAITKRGGSTYYADSVKGRFTISRDNAKNTVYLQMNSLKPEDTAVYYCAAVNVRHFSYWGQGTQVTVSS	high polyreactivity
QVQLVESGGGLVQAGGSHRLSCAASGFTIVQYAMGWYRQAPGKERELVARISRNGGSTYYADSVKGRFTISRDNAKNTVYLQMNSLKPEDTAVYYCNALRGPVKYYSWGQGTQVTVSS	low polyreactivity
QVQLVESGGGLVQAGGSLRLSCAASGRITGINAMGWYRPAPGKERELVAAITWRGGRKYYADSVKGRFTISRDNAKNTVYLQMNSLKPEDTAVYYCAAELQGAYYFAYYYWGQGTQVNVSS	high polyreactivity
QVQLVESGGGLVQAGGSLRLSCCASGRTFLDNALGWYRQAPGKERQLVAAISGGGGTYYADSVKGRFTISRDNAKNTVYLQMNSLKPEDTAVYYCATDRGHKWVFYVTYYRYESWGQGTQVTVSS	low polyreactivity

Sequence	polyreactivity (PSR sort gate)
QVQHVESGGGLVQAGGSLRLSCAASGSNFGYVMGWYRQAPGKERELVAAISRSGGSTYYADSVKGRFTISRDNAKNTVYLQMNSLKPEDTAVYYCAARLYSSSYNSEQYYYWGQGTQVTVSS	high polyreactivity
QVQLVESGGGLVQAGGRLRLSCAAYGSIFDGYAMGWYRQAPGKERELVAAISRGGRTYYADSVKGRFTISRDNAKNTVYLQMNSLKPEDTAVYYCAAVTRLDGNMDYWGQGTQVTVSS	high polyreactivity
QVQLVESGGGLVQAGGSLRLSCAASGRTFAFNAMGRYRQAPGKEMELVAAISRSGGSTYYADSVKGRFTISRDNAKNTVYLQMNSLKPEDTAVYYCNAYYNRYPGYDYWGQGTQVTVSS	high polyreactivity
QFQLVESGGGLVQAGGSLRLSCAASGGTFGWNAMGLYRQAPGKERELVAAITSSGGDTYYADSVKGRFTISRDNAKNTVYLQMNSLKPEDTAVYYCAAEDGRQYGYWGQGTQVTVSS	low polyreactivity
QVQLVESGGGLVQAGGSLRLSCAASGFIFGRYARGWYRQAPVKERELVAAINWSGGSTYYADSVKGRFTISRDNAKNTVYLQMNSLKPEDTAVYYCAARTSRRDGGGSYDYWGQGTQVTVSS	high polyreactivity
QVQLVESGGGLVQAGGSLRLSCAASGSISGLYAMGWYRQAPGKERELVARIRWRGDSTYYADSVKGRFTISRDNAKNTVYLQMNSLNPEDTAVFYCAASAYSGKVNKYNYWGQGTQVTVSS	high polyreactivity
QVQLVESGGGLVQAGGSLRLSCAASGSTFHGYALGWYRQAPGKERELVAAISWSGGRTYYADSVKGRFTISRDNAKNTVYLQMNSLKPEDTAVYYCNKDGYYRWQSTYLANRYDYWGQGTQVTVSS	high polyreactivity
QVQLVESGGGLVQAGGSLRLSCAASRITFYPNDMGWDRQAPGKERELVAAITTNDGDTYYADSVKGRFTISRDNAKNTVYLQMISLQPEDTAVYYCAADSGSTSEYEYLGQGTQVTVSS	low polyreactivity
QVQLVESGGGLVQAGGSNRLSCAASGCIFSRYLMGWYRQAPGIETELVADISGSRGRTYYADSVKGRFTISRDNAKKTVYLQMNSLKPEDTAVYYSNKVWFGYSGVDDYWGQGTQVTVSS	high polyreactivity
QVQLLESGGGLVQAGGSLRLSCAASGTNFDYYLMGWYRQAPGKERELVAAISWSGASTYYADSVKGRFTISRDNAKNTVYLQMNSLKPEDSAVYYCAADYCVKTLIDYDYWGEGTQVTVSS	low polyreactivity
QVQLVESGGGLVQAGGSLRLSCAASGFTFGLNAMGWYRQAPGKERELVAGISRNGGRTYYADSVKGRFTISRDNAKNTVYLQMNSLKPDDTAVYYCNKVVSTYWTKSRVQWRYSRYDYWGQGTQVTVSS	high polyreactivity
QVQLVESGGGLVQAGGSLRLSCAASGRIFTGNAMGWYRQAPGKERELVAAISRRGTRTYYADSVKGRFTISRDNAKNTVYLQMNSLKPEDTAVYYCATVLYKAYNDYGYWGQGTQVTVSS	high polyreactivity
QVQLVESVGGLVQAGGSLRLSCAASGRMFAKYAMGWYRQAPGKERELVPISSSVGRTYYADSVKGRFTISRDNAKNTVSLHMHSLKPEDTAVYYCNAKPRWYVPYDYSGQGTQVTVSS	high polyreactivity
QVQLVESGGGLVQAGGSLRLSCAASGSTFNAYAMGWYRQAPGKERELVAAISYTGGSTYYADSVKGRFTISRDNAKNTVYLQMNSLKPDDTAVYYCARRQARKFYYWGQGTQVTVSS	high polyreactivity
QVQLVESGGGLVQAGGSLRLSCAASGRIFPLYAMGWSRQAPGKERELVAAITSSGGSTYYADSVKGRFTISRDNAKNTVYLQMNSLKPEDTAVYYCAADYSVYWLDYGYWGQGTLVTVSS	low polyreactivity
QVQLVESGGGLVQAGGSLRLICAASGFTFNWYAMGWYRQAPGKERELVATISSTGSTYYADSVKGRFTISRDNAKNTVYLQMNSQKPEDTGVYYCAVRRPPYSYYWDFDSWGQGTPVTVSS	high polyreactivity
QVQLVESGGGLVQAGGSLRLSCAATGSIFIRYAIGWYRHEPGKERELVAAITSTGSTSYADSVKWRFTISRDNAKNTVYLQMNSLKPEDTAVYYCAAAGFWHGYFGYGYWGQGTQVTVSS	low polyreactivity
QVQLVESGGGLVQAGGSLRLSCAASGSTFYPYAMGWYRQAPGKERELVAAISSGGSTSYADSVKGRFTISRENAKNTVYLQMNSLKPEDTAVYYCNASSPVAVPVYDYDYWGQGTQVTVSS	low polyreactivity
QVQLVESGGGLVQAGGSLRLSCAASGRILWFYAMGWYRQAPGKERELVAAITDSGGSTYYADSVKGRFTISRDNAKNTVYLQMNSLKPEDTAVYYCAADTYYEFQYYVILEYNYWGQGTQVTVSS	low polyreactivity
QVQLVESGGGLVQAGGSLRLSCAASGIIFHYYAMGWSRPEPGKERELVAAITSSGDRTYYADSVKGRFTISRDTAKNTVYLQMNSLKPEDTAVYYCAKDVWRWFGYWGQGTQVTVSS	high polyreactivity
